Experimental data reported in the MegaScale stability set (Tsuboyama et al. 2023).

B1: 6YSE (parent)
chain: HERALMVNRLQKLTRMLRVHPDPKWKQEQQELIKRLK

Variants of: B1
Assay: folding stability dG (cDNA display proteolysis); higher = more stable
Details: PBS, room temperature

Which “folding stability dG” value does the source give for HERALMVNRLQKLTRMLRVHPSPKWKQEQQELIKRLK [D22S] here?
The value was 1.09 kcal/mol.

With HERALMVNRLQKLTRMLRVHPVPKWKQEQQELIKRLK [D22V] as the variant, how does the “folding stability dG” value read?
Its value is 0.67 kcal/mol.

For HERALMVNRLQKLTRMLRVHPNPKWKQEQQELIKRLK [D22N], which “folding stability dG” value is on record?
The value was 1.67 kcal/mol.

Which “folding stability dG” value does the source give for HERALMVNRLQKLTRMLRVHPTPKWKQEQQELIKRLK [D22T] here?
The value was 1.13 kcal/mol.

For HERALMVNRLQKLTRMLRVHPRPKWKQEQQELIKRLK [D22R], which “folding stability dG” value is on record?
Its value is 1.06 kcal/mol.

With HERALMVNRLQKLTRMLRVHPYPKWKQEQQELIKRLK [D22Y] as the variant, how does the “folding stability dG” value read?
The value was 1.14 kcal/mol.

Which “folding stability dG” value does the source give for HERALMVNRLQKLTRMLRVHPLPKWKQEQQELIKRLK [D22L] here?
Its value is 1.22 kcal/mol.

For HERALMVNRLQKLTRMLRVHPMPKWKQEQQELIKRLK [D22M], which “folding stability dG” value is on record?
Its value is 0.675 kcal/mol.

For HERALMVNRLQKLTRMLRVHPWPKWKQEQQELIKRLK [D22W], which “folding stability dG” value is on record?
Its value is 0.947 kcal/mol.

With HERALMVNRLQKLTRMLRVHPDKKWKQEQQELIKRLK [P23K] as the variant, how does the “folding stability dG” value read?
Its value is 0.967 kcal/mol.

Which “folding stability dG” value does the source give for HERALMVNRLQKLTRMLRVHPDHKWKQEQQELIKRLK [P23H] here?
Its value is 0.269 kcal/mol.

For HERALMVNRLQKLTRMLRVHPDNKWKQEQQELIKRLK [P23N], which “folding stability dG” value is on record?
Its value is 0.238 kcal/mol.

For HERALMVNRLQKLTRMLRVHPDEKWKQEQQELIKRLK [P23E], which “folding stability dG” value is on record?
Its value is 0.721 kcal/mol.

Which “folding stability dG” value does the source give for HERALMVNRLQKLTRMLRVHPDLKWKQEQQELIKRLK [P23L] here?
Its value is 0.804 kcal/mol.

For HERALMVNRLQKLTRMLRVHPDIKWKQEQQELIKRLK [P23I], which “folding stability dG” value is on record?
The value was 0.608 kcal/mol.

For HERALMVNRLQKLTRMLRVHPDQKWKQEQQELIKRLK [P23Q], which “folding stability dG” value is on record?
Its value is 0.666 kcal/mol.

For HERALMVNRLQKLTRMLRVHPDWKWKQEQQELIKRLK [P23W], which “folding stability dG” value is on record?
The value was 0.75 kcal/mol.

For HERALMVNRLQKLTRMLRVHPDMKWKQEQQELIKRLK [P23M], which “folding stability dG” value is on record?
The value was 0.09 kcal/mol.

Which “folding stability dG” value does the source give for HERALMVNRLQKLTRMLRVHPDGKWKQEQQELIKRLK [P23G] here?
Its value is 0.641 kcal/mol.

Which “folding stability dG” value does the source give for HERALMVNRLQKLTRMLRVHPDYKWKQEQQELIKRLK [P23Y] here?
The value was 0.554 kcal/mol.

Which “folding stability dG” value does the source give for HERALMVNRLQKLTRMLRVHPDTKWKQEQQELIKRLK [P23T] here?
Its value is 0.669 kcal/mol.

Which “folding stability dG” value does the source give for HERALMVNRLQKLTRMLRVHPDSKWKQEQQELIKRLK [P23S] here?
The value was 0.806 kcal/mol.

For HERALMVNRLQKLTRMLRVHPDAKWKQEQQELIKRLK [P23A], which “folding stability dG” value is on record?
The value was 1.03 kcal/mol.

Which “folding stability dG” value does the source give for HERALMVNRLQKLTRMLRVHPDDKWKQEQQELIKRLK [P23D] here?
Its value is 0.676 kcal/mol.

With HERALMVNRLQKLTRMLRVHPDVKWKQEQQELIKRLK [P23V] as the variant, how does the “folding stability dG” value read?
The value was 0.701 kcal/mol.

For HERALMVNRLQKLTRMLRVHPDRKWKQEQQELIKRLK [P23R], which “folding stability dG” value is on record?
Its value is 0.598 kcal/mol.

For HERALMVNRLQKLTRMLRVHPDFKWKQEQQELIKRLK [P23F], which “folding stability dG” value is on record?
Its value is 0.718 kcal/mol.

With HERALMVNRLQKLTRMLRVHPDPKWGQEQQELIKRLK [K26G] as the variant, how does the “folding stability dG” value read?
The value was -0.052 kcal/mol.

For HERALMVNRLQKLTRMLRVHPDPKWCQEQQELIKRLK [K26C], which “folding stability dG” value is on record?
Its value is 0.732 kcal/mol.

For HERALMVNRLQKLTRMLRVHPDPKWDQEQQELIKRLK [K26D], which “folding stability dG” value is on record?
The value was -0.129 kcal/mol.

With HERALMVNRLQKLTRMLRVHPDPKWEQEQQELIKRLK [K26E] as the variant, how does the “folding stability dG” value read?
Its value is 1.14 kcal/mol.

Which “folding stability dG” value does the source give for HERALMVNRLQKLTRMLRVHPDPKWHQEQQELIKRLK [K26H] here?
Its value is 1.01 kcal/mol.

Which “folding stability dG” value does the source give for HERALMVNRLQKLTRMLRVHPDPKWAQEQQELIKRLK [K26A] here?
The value was 0.85 kcal/mol.

Which “folding stability dG” value does the source give for HERALMVNRLQKLTRMLRVHPDPKWFQEQQELIKRLK [K26F] here?
Its value is 1.53 kcal/mol.

For HERALMVNRLQKLTRMLRVHPDPKKKQEQQELIKRLK [W25K], which “folding stability dG” value is on record?
The value was 0.636 kcal/mol.

With HERALMVNRLQKLTRMLRVHPDPKFKQEQQELIKRLK [W25F] as the variant, how does the “folding stability dG” value read?
Its value is 1.25 kcal/mol.

With HERALMVNRLQKLTRMLRVHPDPKGKQEQQELIKRLK [W25G] as the variant, how does the “folding stability dG” value read?
Its value is 0.387 kcal/mol.

With HERALMVNRLQKLTRMLRVHPDPKMKQEQQELIKRLK [W25M] as the variant, how does the “folding stability dG” value read?
Its value is 1.71 kcal/mol.

For HERALMVNRLQKLTRMLRVHPDPKYKQEQQELIKRLK [W25Y], which “folding stability dG” value is on record?
Its value is 1.32 kcal/mol.

With HERALMVNRLQKLTRMLRVHPDPKAKQEQQELIKRLK [W25A] as the variant, how does the “folding stability dG” value read?
Its value is 0.973 kcal/mol.

With HERALMVNRLQKLTRMLRVHPDPKNKQEQQELIKRLK [W25N] as the variant, how does the “folding stability dG” value read?
Its value is 0.386 kcal/mol.

With HERALMVNRLQKLTRMLRVHPDPKRKQEQQELIKRLK [W25R] as the variant, how does the “folding stability dG” value read?
The value was 0.719 kcal/mol.

With HERALMVNRLQKLTRMLRVHPDPKDKQEQQELIKRLK [W25D] as the variant, how does the “folding stability dG” value read?
The value was 0.337 kcal/mol.

With HERALMVNRLQKLTRMLRVHPDPKIKQEQQELIKRLK [W25I] as the variant, how does the “folding stability dG” value read?
Its value is 1.62 kcal/mol.

With HERALMVNRLQKLTRMLRVHPDPKHKQEQQELIKRLK [W25H] as the variant, how does the “folding stability dG” value read?
Its value is 0.686 kcal/mol.

With HERALMVNRLQKLTRMLRVHPDPKQKQEQQELIKRLK [W25Q] as the variant, how does the “folding stability dG” value read?
The value was 0.755 kcal/mol.

With HERALMVNRLQKLTRMLRVHPDPKVKQEQQELIKRLK [W25V] as the variant, how does the “folding stability dG” value read?
The value was 1.22 kcal/mol.

With HERALMVNRLQKLTRMLRVHPDPKTKQEQQELIKRLK [W25T] as the variant, how does the “folding stability dG” value read?
Its value is 0.731 kcal/mol.

Which “folding stability dG” value does the source give for HERALMVNRLQKLTRMLRVHPDPKSKQEQQELIKRLK [W25S] here?
Its value is 0.206 kcal/mol.

For HERALMVNRLQKLTRMLRVHPDPKLKQEQQELIKRLK [W25L], which “folding stability dG” value is on record?
Its value is 1.97 kcal/mol.

For HERALMVNRLQKLTRMLRVHPDPTWKQEQQELIKRLK [K24T], which “folding stability dG” value is on record?
Its value is 1.3 kcal/mol.

Which “folding stability dG” value does the source give for HERALMVNRLQKLTRMLRVHPDPQWKQEQQELIKRLK [K24Q] here?
Its value is 1.22 kcal/mol.

For HERALMVNRLQKLTRMLRVHPDPDWKQEQQELIKRLK [K24D], which “folding stability dG” value is on record?
The value was 0.986 kcal/mol.

With HERALMVNRLQKLTRMLRVHPDPWWKQEQQELIKRLK [K24W] as the variant, how does the “folding stability dG” value read?
Its value is 0.63 kcal/mol.

Which “folding stability dG” value does the source give for HERALMVNRLQKLTRMLRVHPDPFWKQEQQELIKRLK [K24F] here?
The value was 0.828 kcal/mol.

With HERALMVNRLQKLTRMLRVHPDPAWKQEQQELIKRLK [K24A] as the variant, how does the “folding stability dG” value read?
The value was 1.24 kcal/mol.

With HERALMVNRLQKLTRMLRVHPDPHWKQEQQELIKRLK [K24H] as the variant, how does the “folding stability dG” value read?
Its value is 0.889 kcal/mol.

Which “folding stability dG” value does the source give for HERALMVNRLQKLTRMLRVHPDPIWKQEQQELIKRLK [K24I] here?
Its value is 1.32 kcal/mol.

For HERALMVNRLQKLTRMLRVHPDPNWKQEQQELIKRLK [K24N], which “folding stability dG” value is on record?
The value was 0.982 kcal/mol.

For HERALMVNRLQKLTRMLRVHPDPYWKQEQQELIKRLK [K24Y], which “folding stability dG” value is on record?
Its value is 1.13 kcal/mol.

With HERALMVNRLQKLTRMLRVHPDPVWKQEQQELIKRLK [K24V] as the variant, how does the “folding stability dG” value read?
Its value is 1.31 kcal/mol.

Which “folding stability dG” value does the source give for HERALMVNRLQKLTRMLRVHPDPEWKQEQQELIKRLK [K24E] here?
Its value is 1.01 kcal/mol.

Which “folding stability dG” value does the source give for HERALMVNRLQKLTRMLRVHPDPGWKQEQQELIKRLK [K24G] here?
Its value is 0.85 kcal/mol.

Which “folding stability dG” value does the source give for HERALMVNRLQKLTRMLRVHPDPSWKQEQQELIKRLK [K24S] here?
The value was 0.97 kcal/mol.

With HERALMVNRLQKLTRMLRVHPDPMWKQEQQELIKRLK [K24M] as the variant, how does the “folding stability dG” value read?
The value was 1.09 kcal/mol.

For HERALMVNRLQKLTRMLRVHPDPLWKQEQQELIKRLK [K24L], which “folding stability dG” value is on record?
The value was 1.11 kcal/mol.

For HERALMVNRLQKLTRMLRVHPDPRWKQEQQELIKRLK [K24R], which “folding stability dG” value is on record?
The value was 1.34 kcal/mol.
